Test: label from the status in PepcDB records

Sequence: MIKVGVIGFGTVGQGVVESLVQLERGLRKEVTLEMLLVTNRRKHEHSEQYALVTDDWETFAARYYDVVFEAAGGIEPVYDYVRFFLKKGVPVVTANKKLVAERGEELERLAAENDTYLCYEAAVAGGIPILNAIKGTLATTSFTSVAGILNGTTNYILTGMIEQNRPFQDMLEEAQAKGYAEADPTDDIEGYDAWYKIRILARLCFGIWPNRDDISRSGLHDVLDWHVELGQSLGLTLKLDGRASVKNNTIIGSVAPAFFTNDHPFSTVYGVTNAVVLEGKAIERLLFTGPGAGKEATANSMVEDYLFHERYKGERQPMLIKEKEQNRIANVLVMVAAHEKKEAEKVVEHLPCQRINTFAADEGEAWWLKVYEDVIPFISKQLGLSLYRVYGAFEKQLVTTNMHHPSSIDETLEQKA
- protein production: failed

Sequence: MNTQEPAGLFTAVYEGDENTVVRLLRAGTAADARDEDGQTALYLAAVSNEPGIVRLLLAAGADPDRLSADADSPLCGAACGGHAEVVRALLAAGATADLEEEFGFRALTWAVQRGQVEILTELLAAGAHPDRPGPTGEAPLVAAARRGSPGCVRALLAHGAGARSPALDEARRWPALDVEAELRAGLEQMYGSGHEMVTHRIPEDGGITVEVQLRTGERTMAGNDQQTGHAAIITLLEAALGIATPVPELADRALRCGDPANDDWTEAVSVLVRRAGGETFTAATAWSRSPDPLRRALGTEILRKLGR
- protein production: failed

Sequence: MAKLSPTTRIFALVIKEILTLFKDPKGRIVLIAPPLLQLLIFSFAATMEIKNISIGILNQDFGKHGYEVIQRFIGSPTFSKVFFIQKQSDIKPIIDNQEAMVVMTIPQDFSRKIESNSQANIQLILDGRRSNATQIVNGYISSIIENYNQEIQKTHGAIMTPPVMVTRSWFNENLLYLWFTVPSLVCILSMLISLVVTALSVARERELGTFDQLLVSPLTPYEILIGKTIPAIIIGLAEGLLMWVAAVWLFDVPFYGSPLLMVYILFIFIMSTVGVGLFISSMCKTQQQAILGVFIYMVPVVTLSGYASPVENMPEWLQDLTWFNPLKFTLIAVIGIFLKGMSALEVFITTWPLLLVGAVTLFIAGWFFKQRME
- protein production: failed

Sequence: ELREARLNAFFSGAPVGMSILDNQLRFVQINELIAHIHGKPAQEHIGKTLEEIAPRIAPLVTPLCQKVLLTGQPILNVELSLPAVNQADSLRHFLVSYFPIPGEGNQLSGVGKVIVEISDVYDELRLRKRAEEALKESI
- protein production: not failed

Sequence: MNDDSQDKIIHDIRIQLRKAATELSRWKLYGSSKWAAEALAGLAEAIDVDQTHSLADESPLRNKQGVPKQMFEIPQNGFGLSETEYDLYLLGSTLFDAKEFDRCVFFLKDVTNPYLKFLKLYSKFLSWDKKSQESMENILTTGKFTDEMYRANKDGDGSGNEDINQSGHQRANLKMVSNEHESQSNISSILKEINTFLESYEIKIDDDEADLGLALLYYLRGVILKQEKNISKAMSSFLKSLSCYSFNWSCWLELMDCLQKVDDALLLNNYLYQNFQFKFSENLGSQRTIEFNIMIKFFKLKVFEELNGQLEDYFEDLEFLLQVFPNFTFLKAYNATISYNNLDYVTAESRFDDIVKQDPYRLNDLETYSNILYVMQKNSKLAYLAQFVSQIDRFRPETCCIIANYYSARQEHEKSIMYFRRALTLDKKTTNAWTLMGHEFVELSNSHAAIECYRRAVDICPRDFKAWFGLGQAYALLDMHLYSLYYFQKACTLKPWDRRIWQVLGECYSKTGNKVEAIKCYKRSIKASQTVDQNTSIYYRLAQLYEELEDLQECKKFMMKCVDVEELLEGIVTDETVKARLWLAIFEIKAGNYQLAYDYAMGVSSGTSQEIEEARMLARECRRHM
- protein production: failed

Sequence: ERLILCSPYFIPDESLLEAVTSACYRGVTVELFVSEQADQFAIDHAQSSYYQALLEAGVKIYQFPKPDVLHTKYMIADPDDTTGNEALGVLGSSNLDIRSFGLNYEISLMIAKGNLIHELNALTDRYRTVSFKLTLDKWNQR
- protein production: failed

Sequence: MKRFIIKSDRIGFSIWEETDLKEALELWGNSNVTKYITADGKMSIEDVKTRLKVEIEFYEKYKVQYWPIFLNETSENLGVCGLHPYNIKDSVFELGVHLREKYWGIGVAEKACNLVMRYAFENLQAKAIFVGHNPNNKASKKLIKKLGFTYTHDEFYEPTGLYHPSYLITCNEFIEVKNKLKGGKIIGKNK
- protein production: not failed

Sequence: MDGLHVSILSLVIFIVLFAVFVYLGFYASRWRKGDLSKLPEWALAGRKLGPYLMWFLLTADLFTAYTFIAVPSLVLASGPIGFYAAFYSGVTAFIALLFMPRLWAVSRNKGYVTAADFVKDRFNSKTLAGLVAVTGVVAELPYIALQIVGMQAALSILLLGLGVSNISLVNDLSLLVSFIILAAFVFTSGLRGAALTAVYKDIIILATVITVAIYVPLAFGGFSAAFSNAATYSSQVNSALNGVNKPIFYQYLQSTVSNNLAYISLAIGSAFALYLYPHAVNGSVSADSKKSLKISLALQPFYSLILAIIALFGILVYANTNVLNFIIHAKSGAVAVPALIGYTMPDWFVGVALLGIFIGGLVPAAIMAIGAANLLTRNIIKELKPNMSPNTESSLAKWISTAFKFIALALVFTVPATYAIQLQLLGGVIILQTLPPLFLGLYTHKLNSHSLIAGWVAGMFSGIYLTMLANHFGPIKTTSFITPIGVMYIGAISVIINVAIGLIGTAIAYGVGWRPRTGVKTEELV
- protein production: failed

Sequence: MPNILYKIDNQYPYFTKNEKKIAQFILNYPHKVVNMTSQEIANQLETSSTSIIRLSKKVTPGGFNELKTRLSKFLPKEVTQYNVELVDNESTISLKNKLHSRSKAALSNANETINVAIIDEICDLIKNSETIFIYGYGASFVVATDLYQKLSRIGLNIQLVHETHIFTTMLATRNSNDCVIFISNNGTQSEMQSIAKVIADYHIPIATISSTSDNPVAKQSNIVLTYGQTDENEMRMGATTSLFAQMFTIDILYYRYIALNYQSSLDFITQSKIALDNYRKHLSNIDFKH
- protein production: failed

Sequence: MTARSNSSSSGTSSNKRPRTSGSSPSSKSRRGSGSGPAGRSRKTTSAVSYPTNSARRASETSEERTGSAFRAVGSGLGTLVSATAHGVGSVTRAVARTLHREHDDEEFDAVDDAFSSEETVVTNRKRKPSRMTKTKKNLFDDDIEDQHDDFDEEAGLGRFTLALSDESVDSIGLILIALAFIVGASVWFDIAGPIGAAIAAGVHFVIGAGALILPLALVAIAIALMLGKLPEPDHQPRLVLGTSVIAISMLGLIHLFAGDPADWQGRTHAGGIVGAYSGGMIARGFSVYLAIPLLVLVIIYGALRINNVTVKELFEAIQDTVQGLRDDSEDEDDPLYADADAEIEARSRGEKLHRPQPRREKPRPAPERRRMSAPLVDDVDEDVVSRPLFDDPSTAQSQKSSVETQRAARDVSETDEFPAVDEPTVVVPRKPSAPRMSLPQTPVTDVEAAADVVAAGRKAVQDAVKARESHNVGAALAPSTPAQPYEAPESHYAVPSTQLLIPGKEAKTHSEANDRMIEAISDVFAEFKVDAHVTGFSRGPTVTRYEVELGPGVKVSKITNLQSNLAYAVATDNVRLLTPIPGKSAVGIEVPNTDREMVRLGDVLNSESVHSDHDPMLIGLGKDIEGDFVAHSVQKMPHLLVAGSTGSGKSAFVNSLLVSLLTRATPEDVRLILVDPKMVELTPYEGIPHLITPIITQPKKAAAALQWLVEEMEQRYMDMKSTRVRHIKDFNRKVKSGEIQAPLGSQREYHPYPYIVCVVDELADLMMTAPKEIEDSIVRITQKARAAGIHLVLATQRPSVDVVTGLIKTNVPSRLAFATSSLTDSRVILDQAGAEKLIGMGDGLFIPQGGRPQRIQGAFVTDEEIQAVVDAAKAQGEPNYTEGVTEDKAAEAKKDIDADIGNDLEDLLQAVELVVTAQLGSTSMLQRKLRIGFAKAGRLMDLMETRGIVGPSEGSKAREVLVKPEELETTLWMIKGAKPEDAPKEDDWQSADSGVSDASDPSHGERAAYNPSSNAF
- protein production: failed

Sequence: MASFPELPALRRLATLGRSWGLLSDFKYEQTRPDIFYGNLALDTSSLVAALSEDISGAGLNDLKVLDVGGGPGYFAEAFETLGATYFSVEPDVGEMSAAGIDVHGSVRGSGLDLPFLPDSFDVVYSSNVAEHVSAPWELGEEMLRVTRSGGLAILSYTIWLGPFGGHETGLWEHYVGGEFARDRYTKKHGHPPKNVFGESLFNVSCREGLEWGASVGNAELVAAFPRYHPYWVWWMVKVPVLREFAVSNLVLVFKKHLEHHHHHH
- protein production: failed

Sequence: RRLVTYVLVHGTHSAGAFWTPIARELGLRGHRVVMVDQPRHGAEAFVAESYQRQDLAAMAVEPSPLKGLGLDDYEARVAGIVRRAARNGPVVLVGHSLGGVSVSRVGEAVPHLLHHICYMAAFCPSRVLPTADACTAAPENANAVSPVELTVGDPDRLGVLRLNFRTGVSGELALLKEMICADYPDADFRRILAGMQTDEPVAAYAGRAVGRAGRWGRIPRTYLRFGRDRTIATALQDRVIAEADAATPGNGFRVHDFPEASHVGPLDPTPVADVLDRLA
- protein production: failed

Sequence: MKKLAIVIPAYKVDFFETVLFSLAQQTCKDFTVYIGEDCSRDDFKSLIEQYSKQLDIVYRRFEVNFGGHDLVAQWNRCIQLTQNEPWLWLFSDDDIMGPRCVEYFFNTIAIDNGAFDIYHFDVKIVDCENQIVRIPTVYPSVIDSETFYRRKASARLDSFVVEYIFLRDIYNCTGGFQHFDLAWGSDIATWVKIGADKGIKTISGDYVYWRKSKKNITPNMDNKMVLRKLTADIEFTHWINEFFHKSSVYRFTKYAFFRLVVHYSQAISKSQIRLLLDKAVGKNIISFNDAFIINWTYRFIQLAKRVKDVLYFLEHHHHHH
- protein production: not failed

Sequence: MSERNPILITGAAGEVGGVSRTTVDMLLEQGHPVRAFVRQDDERAHALRQAGAEVFVGDLLTIADVSAALKGVRRIYFSMSLSPYYTDAVSLMAAAARAQGDIEVFVNISEYEQSFMTFEKMTAPEEERRAWLGGLVANWSPQQRAHWVAEQVLDWSGLPTVNIRAAMFVENPLMTWLALEPLANGELRLPFGHHRLAPIAGYDVAELCVKILADPAPHISKSYDLNGPELKDMHGFAEDYAAALGRQVTYVPEDVETWNETYVDTVLGALPHTAEHLKTLTRLMGGGGYRGVTDQLETLLGRPPKTVRWALENHPRIRKLASA
- protein production: failed

Sequence: MNRLKKWIRYVPDRIDDGLRYLCGRMSPDVRLVCVVVMLTGFGCLSIYMTVSSIYRIGRHEGEQLQMDHIRRMELYRGINKDSINIKNQVDYGEPKKSGTATGERCNA
- protein production: failed

Sequence: MSEQKAPIIVKRIKKTSGGHHGGAWKIAYADFVTAMMAFFLLMWLLGSTTRGDLEGIAEYFKTPLKVAMQGGTGSGDSSSVIKGGGADLTRKNGQIKKGEVDADRKSYNLKAAQAELERLETAKLKQLKQRLEAAIDRNPTLKQFKRQLLIDITSEGLRIQIVDEQNRPMFNLASAELQPYTKVILHEIAQVLNDVENRISLSGHTDARPYANGERGYSNWELSADRANASRRELIVGGMSEAKMLRVVGLASSVPFTQAKPFDPVNRRISIIVLNKRTEEAITKEASGAEVTDQNGASDALDRRAPPSDVAAPAAAAK
- protein production: failed

Sequence: ASDSAFTYNGVSITRPTNEVNDVISGVNITLEQTTEPNKPAIISVSRDNQAIIDSLTEFVKAYNELIPKLDEDTRYDADTKIAGIFNGVGDIRAIRSSLNNVFSYSVHTDNGVESLMKYGLSLDDKGVMSLDEAKLSSALNSNPKATQDFFYGSDSKDMGGREIHQEGIFSKFNQVIANLIDGGNAKLKIYEDSLDRDAKSLTKDKENAQELLKTRYNIMADVLPLMIAKSLKPIKNSIPCK
- protein production: failed

Sequence: MSLEAVTILLADDEAILLLDFESTLTDAGFLVTAVSSGAKAIEMLKSGAAIDGVVTDIRFCQPPDGWQVARVAREIDPNMPIVYISGHAALEWASNGVPDSIILEKPFTSAQLITAVSQLLNAREGHHHHHH
- protein production: not failed

Sequence: MSPIEKSSKLENVCYDIRGPVLKEAKRLEEEGNKVLKLNIGNPAPFGFDAPDEILVDVIRNLPTAQGYCDSKGLYSARKAIMQHYQARGMRDVTVEDIYIGNGVSELIVQAMQALLNSGDEMLVPAPDYPLWTAAVSLSSGKAVHYLCDESSDWFPDLDDIRAKITPRTRGIVIINPNNPTGAVYSKELLMEIVEIARQHNLIIFADEIYDKILYDDAEHHSIAPLAPDLLTITFNGLSKTYRVAGFRQGWMVLNGPKKHAKGYIEGLEMLASMRLCANVPAQHAIQTALGGYQSISEFITPGGRLYEQRNRAWELINDIPGVSCVKPRGALYMFPKIDAKRFNIHDDQKMVLDFLLQEKVLLVQGTAFNWPWPDHFRIVTLPRVDDIELSLSKFARFLSGYHQL
- protein production: failed
